Laboratory results published in PMC4674770, “Aβ-dependent reduction of NCAM2-mediated synaptic adhesion contributes to synapse loss in Alzheimer's disease” (Nature Communications, 2015).

Target: T1, Aβ1-42 peptide (Aβ1-42 oligomers, Aβ-derived diffusible ligands) (UniProt P05067 672-713)
T1 construct: amyloid-beta peptide 1-42, the cut product of the amyloid precursor protein APP; numbers count on: the Aβ peptide; Used as oligomers: by SDS-PAGE and western blot mainly tetramers (~18 kDa) with a minor monomer band (~4.5 kDa); also called synthetic Aβ_(1-42); source: bought: AbcamBiochemicals (synthetic Aβ1-42), prepared as Aβ-derived diffusible ligands
Assay: ELISA; NCAM2-ED (25 nM) or BSA (25 nM) held on MaxiSorp 96-well plates coated with antibodies against the extracellular domain of NCAM2; Aβ1-42 7.8-250 nM in 0.05% Tween 20 and 0.1% BSA; bound Aβ1-42 detected with antibodies against Aβ1-42 and HRP-conjugated secondary antibodies
Conditions: both partners purified

B1: recombinant extracellular domain of NCAM2 (NCAM2-ED) (domain or fragment, mouse, UniProt O35136 20-698, looked up)
chain: LLQVTISLSKVELSVGESKFFTCTAIGEPESIDWYNPQGEKIISTQRVMLQKEGVRSRLTIYNANIEDAGIYRCQATDAKGQTQEATVVLEIYQKLTFREVVSPQEFKQGEDAEVVCRVSSSPAPAVSWLYHNEEVTTIPDNRFAVLANNNLQILNINKSDEGIYRCEGRVEARGEIDFRDIIVIVNVPPAIMMPQKSFNATAERGEEMTLTCKASGSPDPTISWFRNGKLIEENEKYILKGSNTELTVRNIINKDGGSYVCKATNKAGEDQKQAFLQVFVQPHILQLKNETTSENGHVTLVCEAEGEPVPEITWKRAIDGVMFSEGDKSPDGRIEVKGQHGRSSLHIRDVKLSDSGRYDCEAASRIGGHQRSMHLDIEYAPKFVSNQTMYYSWEGNPINISCDVTANPPASIHWRREKLLLPAKNTTHLKTHSVGRKMILEIAPTSDNDFGRYNCTATNRIGTRFQEYILELADVPSSPHGVKIIELSQTTAKISFNKPESHGGVPIHHYQVDVKEVASETWKIVRSHGVQTMVVLSSLEPNTTYEIRVAAVNGKGQGDYSKIEIFQTLPVREPSPPSIHGQPSSGKSFKISITKQDDGGAPILEYIVKYRSKDKEDQWLEKKVQGNKDHIILEHLQWTMGYEVQITAANRLGYSEPTVYEFSMPPKPNIIKDTLFNG
notes: signal peptide in the construct; neural cell adhesion molecule 2 (NCAM2, OCAM), mouse, extracellular domain, amino acids 1-698, amplified from a mouse brain cDNA library; About 100 kDa on gels; also called recombinant soluble extracellular domains of NCAM2; source: CHO cells (CHO-K1), stably transfected, secreted into the culture medium; purified (40% ammonia sulphate, desalted, …)
binding result: binds
